Laboratory results from publication PMC12259648.

What was measured:
212579 E38HS (human) = assay: SPR; Biacore 1K+; purified IgG captured (about 100 RU) on anti-human IgG (Fc) on a CM5 chip; Phl p 5 injected at 1.875-60 nM, 25 uL/min, 120 s, 1360 s dissociation; PBS with 0.02% Tween 20; 1:1 Langmuir model
212579 G62HS (human) = assay: as above
[1] = biological target: 212579 I29LV, T40LA, V108LG (human); assay: as above
212579 I53HV (human) = assay: as above
[2] = biological target: 212579 I53HV, I29LV, T40LA, V108LG (human); assay: as above
212579 T40HN (human) = assay: as above
[3] = biological target: 212579 T40HN, I29LV, T40LA, V108LG (human); assay: as above
[4] = biological target: 212579 T40HN, I53HV (human); assay: as above
[5] = biological target: 212579 T40HN, I53HV, H113HY (human); assay: as above
212579 H113HY (human) = assay: SPR; Biacore 1K+; antibody 212579 H113HY captured from culture supernatant without prior purification on anti-human IgG (Fc) on a CM5 chip; Phl p 5 injected at 1.875-60 nM; PBS with 0.02% Tween 20; 1:1 Langmuir model

In the case of Phl p 5.0101 (natural protein), the Kd (212579 E38HS (human)) is reported as 9.9 nM, the koff (212579 E38HS (human)) is reported as 0.00273 s⁻¹ and the kon (212579 E38HS (human)) is reported as 280000 M⁻¹ s⁻¹. For the same substance, the Kd (212579 G62HS (human)) was 0.27 nM, the koff (212579 G62HS (human)) was 0.00011 s⁻¹ and the kon (212579 G62HS (human)) was 420000 M⁻¹ s⁻¹. For the same substance, the Kd [1] was 1.5 nM, the koff [1] was 0.00035 s⁻¹ and the kon [1] was 230000 M⁻¹ s⁻¹. The Kd (212579 I53HV (human)) was 0.31 nM, the koff (212579 I53HV (human)) was 0.00013 s⁻¹ and the kon (212579 I53HV (human)) was 420000 M⁻¹ s⁻¹. For the same substance, the Kd [2] was 1.5 nM, the koff [2] was 0.00033 s⁻¹ and the kon [2] was 220000 M⁻¹ s⁻¹. It also gave a Kd (212579 T40HN (human)) of 0.49 nM, a koff (212579 T40HN (human)) of 0.00016 s⁻¹ and a kon (212579 T40HN (human)) of 320000 M⁻¹ s⁻¹. It also gave a Kd [3] of 4.3 nM, a koff [3] of 0.0005 s⁻¹ and a kon [3] of 120000 M⁻¹ s⁻¹. For the same substance, the Kd [4] was 0.56 nM, the koff [4] was 0.00014 s⁻¹ and the Kd [5] was 0.92 nM. The koff [5] was 0.00014 s⁻¹, the kon [5] was 160000 M⁻¹ s⁻¹ and the Kd (212579 H113HY (human)) was 1.4 nM. For the same substance, the koff (212579 H113HY (human)) was 0.00036 s⁻¹ and the kon (212579 H113HY (human)) was 260000 M⁻¹ s⁻¹.
